B1: MEDI0562 (antibody, INN chains, looked up, V domains shown)
VH: QVQLQESGPGLVKPSQTLSLTCAVYGGSFSSGYWNWIRKHPGKGLEYIGYISYNGITYHNPSLKSRITINRDTSKNQYSLQLNSVTPEDTAVYYCARYKYDYDGGHAMDYWGQGTLVTVSS
VL: DIQMTQSPSSLSASVGDRVTITCRASQDISNYLNWYQQKPGKAPKLLIYYTSKLHSGVPSRFSGSGSGTDYTLTISSLQPEDFATYYCQQGSALPWTFGQGTKVEIK
B2: RG7888 (antibody, INN chains, looked up, V domains shown)
VH: EVQLVQSGAEVKKPGASVKVSCKASGYTFTDSYMSWVRQAPGQGLEWIGDMYPDNGDSSYNQKFRERVTITRDTSTSTAYLELSSLRSEDTAVYYCVLAPRWYFSVWGQGTLVTVSS
VL: DIQMTQSPSSLSASVGDRVTITCRASQDISNYLNWYQQKPGKAPKLLIYYTSRLRSGVPSRFSGSGSGTDFTLTISSLQPEDFATYYCQQGHTLPPTFGQGTKVEIK

Experiments:
[1] = molecular target: human OX40-CD40 fusion protein on HEK-Blue reporter cells (human); assay: cell-based or functional assay
Sequence of human OX40-CD40 fusion protein on HEK-Blue reporter cells (human) (chain, as listed by the source limits assumed): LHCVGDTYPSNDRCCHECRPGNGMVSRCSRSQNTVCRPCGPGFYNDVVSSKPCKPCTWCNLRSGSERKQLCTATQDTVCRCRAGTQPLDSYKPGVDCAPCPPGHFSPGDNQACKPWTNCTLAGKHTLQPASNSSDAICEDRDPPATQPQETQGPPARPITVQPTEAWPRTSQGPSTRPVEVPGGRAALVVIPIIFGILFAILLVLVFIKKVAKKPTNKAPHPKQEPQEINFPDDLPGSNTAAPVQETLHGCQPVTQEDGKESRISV

[2] = molecular target: recombinant human OX40-his (Sino Biological, Cat#:10481-H03H) (human) (UniProt P43489); assay: ELISA on coated human OX40-His, OD450
Sequence of recombinant human OX40-his (Sino Biological, Cat#:10481-H03H) (human) (P43489 29-214 limits assumed): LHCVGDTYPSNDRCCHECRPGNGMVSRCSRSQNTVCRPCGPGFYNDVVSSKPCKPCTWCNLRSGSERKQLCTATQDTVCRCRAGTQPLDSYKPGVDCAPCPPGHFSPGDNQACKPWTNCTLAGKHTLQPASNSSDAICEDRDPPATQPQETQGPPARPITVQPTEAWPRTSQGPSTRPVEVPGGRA

[3] = molecular target: recombinant human OX40-his (Sino Biological, Cat#:10481-H03H) (human) (UniProt P43489); assay: ELISA, coated hOX40-his
[4] = molecular target: recombinant rhesus OX40-his (Sino Biological, Cat#:90846-C08H) (rhesus monkey); assay: ELISA, coated rhOX40-his
Sequence of recombinant rhesus OX40-his (Sino Biological, Cat#:90846-C08H) (rhesus monkey) (P43489 other isoform, or with tags, fused parts or gaps C08H C08H limits assumed): as the sequence (P43489 29-214 limits assumed) above, with H16Q, S29N, S50A, P55A, L70P, A145P, I159T, G173R, G183R, R185P counted along it

[5] = molecular target: rhesus OX40 expressed on HEK293A cells (rhesus); assay: FACS on HEK293A cells
Sequence of rhesus OX40 expressed on HEK293A cells (rhesus) (P43489 other isoform, or with tags, fused parts or gaps limits assumed): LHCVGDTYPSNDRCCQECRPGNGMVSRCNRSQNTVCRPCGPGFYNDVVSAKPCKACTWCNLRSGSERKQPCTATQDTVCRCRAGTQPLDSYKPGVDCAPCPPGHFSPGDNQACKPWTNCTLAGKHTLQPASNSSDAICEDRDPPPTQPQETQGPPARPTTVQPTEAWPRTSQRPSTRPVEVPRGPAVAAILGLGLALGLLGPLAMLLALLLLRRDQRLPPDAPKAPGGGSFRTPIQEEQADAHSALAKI

[6] = molecular target: human OX40 expressed on HEK293A cells (human) (UniProt P43489); assay: FACS on HEK293A cells
Sequence of human OX40 expressed on HEK293A cells (human) (P43489 29-277 limits assumed): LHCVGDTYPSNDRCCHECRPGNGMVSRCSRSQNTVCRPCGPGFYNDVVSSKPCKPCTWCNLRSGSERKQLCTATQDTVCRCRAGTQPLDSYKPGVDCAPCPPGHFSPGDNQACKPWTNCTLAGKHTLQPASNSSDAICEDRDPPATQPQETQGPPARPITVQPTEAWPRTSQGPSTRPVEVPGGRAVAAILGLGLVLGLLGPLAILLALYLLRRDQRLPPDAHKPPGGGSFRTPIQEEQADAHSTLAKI

[7] = molecular target: recombinant rhesus OX40-his (Sino Biological, Cat#:90846-C08H) (rhesus monkey); assay: ELISA on coated rhesus OX40-His, OD450
[8] = molecular target: rhesus OX40 expressed on HEK293A cells (rhesus); assay: FACS on HEK293A/rhOX40 cells, MFI
[9] = molecular target: human OX40 expressed on HEK293A cells (human) (UniProt P43489); assay: FACS on HEK293A/huOX40 cells, MFI
[10] = molecular target: recombinant human OX40-his (Sino Biological, Cat#:10481-H03H) (human) (UniProt P43489); assay: SPR Biacore 8K, OX40-His on chip, antibody injected

Binder | EC50, agonistic activity in HEK-Blue assay [1] [µg/mL] | EC50 (read off the curve) [2] [µg/mL] | EC50 [3] [µg/mL] | EC50 [4] [µg/mL] | EC50 [5] [µg/mL] | EC50 [6] [µg/mL] | EC50 (read off the curve) [7] [µg/mL] | EC50 (read off the curve) [8] [µg/mL] | EC50 (read off the curve) [9] [µg/mL] | Kd [10] [nM] | koff [10] [s⁻¹] | kon [10] [M⁻¹ s⁻¹]
B1 | 0.31 | 0.003 | 0.0651 | 0.0546 | 0.088 | 0.0935 | 0.003 | 0.3 | 0.3 | 1.79 | 0.000154 | 86300
B2 | 0.121 | 0.003 | 0.0637 | 0.0668 | 0.113 | 0.134 | 0.003 |  |  | 0.00549 | 1.76e-06 | 322000

Reference: US10442866
